Assay results from patent US20220298218A1 (ANTAG THERAPEUTICS, published 2022).
*1 amine or outer side, *2 acyl side, *3 side chain or, on linkers, in order; H or OH if unused. Where no end group is shown, it is not given here. Side-chain parts run from the residue outwards. The star is where a group is joined. C18 diacid = O=C(O)CCCCCCCCCCCCCCCCC(=O)*; C16 diacid = O=C(O)CCCCCCCCCCCCCCC(=O)*; γGlu = O=C(O)[C@H](CCC(=O)[*:2])N[*:1]; AEEA = NCCOCCOCC(=O)O

T1: human GIP receptor (human, UniProt P48546 22-466)
T1 sequence (looked up): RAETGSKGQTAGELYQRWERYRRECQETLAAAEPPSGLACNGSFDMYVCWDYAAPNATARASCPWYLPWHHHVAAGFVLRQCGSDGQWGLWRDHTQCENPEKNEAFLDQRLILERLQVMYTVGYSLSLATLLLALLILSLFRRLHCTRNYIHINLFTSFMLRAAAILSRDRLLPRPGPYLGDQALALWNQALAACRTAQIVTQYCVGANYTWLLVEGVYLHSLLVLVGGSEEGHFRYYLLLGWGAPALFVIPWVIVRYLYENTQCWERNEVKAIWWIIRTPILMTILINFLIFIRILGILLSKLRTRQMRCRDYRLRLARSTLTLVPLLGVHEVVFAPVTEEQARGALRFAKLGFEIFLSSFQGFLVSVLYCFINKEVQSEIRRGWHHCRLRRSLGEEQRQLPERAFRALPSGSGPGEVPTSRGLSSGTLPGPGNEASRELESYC

B1: AT629 (peptide)
peptide: EGTFISDYSIAMDKIK([AEEA-AEEA-γGlu-C16 diacid])QQDFVNWLLAQKPSSGAPPPS-OH
modifications: N-terminus assumed
SMILES: CC[C@H](C)[C@H](NC(=O)[C@H](CO)NC(=O)[C@H](Cc1ccc(O)cc1)NC(=O)[C@H](CC(=O)O)NC(=O)[C@H](CO)NC(=O)[C@@H](NC(=O)[C@H](Cc1ccccc1)NC(=O)[C@@H](NC(=O)CNC(=O)[C@@H](N)CCC(=O)O)[C@@H](C)O)[C@@H](C)CC)C(=O)N[C@@H](C)C(=O)N[C@@H](CCSC)C(=O)N[C@@H](CC(=O)O)C(=O)N[C@@H](CCCCN)C(=O)N[C@H](C(=O)N[C@@H](CCCCNC(=O)COCCOCCNC(=O)COCCOCCNC(=O)CC[C@H](NC(=O)CCCCCCCCCCCCCCC(=O)O)C(=O)O)C(=O)N[C@@H](CCC(N)=O)C(=O)N[C@@H](CCC(N)=O)C(=O)N[C@@H](CC(=O)O)C(=O)N[C@@H](Cc1ccccc1)C(=O)N[C@H](C(=O)N[C@@H](CC(N)=O)C(=O)N[C@@H](Cc1c[nH]c2ccccc12)C(=O)N[C@@H](CC(C)C)C(=O)N[C@@H](CC(C)C)C(=O)N[C@@H](C)C(=O)N[C@@H](CCC(N)=O)C(=O)N[C@@H](CCCCN)C(=O)N1CCC[C@H]1C(=O)N[C@@H](CO)C(=O)N[C@@H](CO)C(=O)NCC(=O)N[C@@H](C)C(=O)N1CCC[C@H]1C(=O)N1CCC[C@H]1C(=O)N1CCC[C@H]1C(=O)N[C@@H](CO)C(=O)O)C(C)C)[C@@H](C)CC
B2: AT630 (peptide)
peptide: EGTFISDYSIAMDKIKQQDFVNWLLAQKPSSGAPPPS
HELM: PEPTIDE1{E.G.T.F.I.S.D.Y.S.I.A.M.D.K.I.K.Q.Q.D.F.V.N.W.L.L.A.Q.K.P.S.S.G.A.P.P.P.S}|PEPTIDE2{[O=C(O)CCCCCCCCCCCCCCC(=O)[*:2]].[gGlu]}$PEPTIDE1,PEPTIDE2,16:R3-2:R2$$$V2.0; N-terminus assumed
SMILES: CC[C@H](C)[C@H](NC(=O)[C@H](CO)NC(=O)[C@H](Cc1ccc(O)cc1)NC(=O)[C@H](CC(=O)O)NC(=O)[C@H](CO)NC(=O)[C@@H](NC(=O)[C@H](Cc1ccccc1)NC(=O)[C@@H](NC(=O)CNC(=O)[C@@H](N)CCC(=O)O)[C@@H](C)O)[C@@H](C)CC)C(=O)N[C@@H](C)C(=O)N[C@@H](CCSC)C(=O)N[C@@H](CC(=O)O)C(=O)N[C@@H](CCCCN)C(=O)N[C@H](C(=O)N[C@@H](CCCCNC(=O)CC[C@H](NC(=O)CCCCCCCCCCCCCCC(=O)O)C(=O)O)C(=O)N[C@@H](CCC(N)=O)C(=O)N[C@@H](CCC(N)=O)C(=O)N[C@@H](CC(=O)O)C(=O)N[C@@H](Cc1ccccc1)C(=O)N[C@H](C(=O)N[C@@H](CC(N)=O)C(=O)N[C@@H](Cc1c[nH]c2ccccc12)C(=O)N[C@@H](CC(C)C)C(=O)N[C@@H](CC(C)C)C(=O)N[C@@H](C)C(=O)N[C@@H](CCC(N)=O)C(=O)N[C@@H](CCCCN)C(=O)N1CCC[C@H]1C(=O)N[C@@H](CO)C(=O)N[C@@H](CO)C(=O)NCC(=O)N[C@@H](C)C(=O)N1CCC[C@H]1C(=O)N1CCC[C@H]1C(=O)N1CCC[C@H]1C(=O)N[C@@H](CO)C(=O)O)C(C)C)[C@@H](C)CC
B3: AT626 (peptide)
peptide: EGTFISDYSIAMDKIK(C16 diacid)QQDFVNWLLEGGPSSGAPPPS-OH
modifications: N-terminus assumed
SMILES: CC[C@H](C)[C@H](NC(=O)[C@H](CO)NC(=O)[C@H](Cc1ccc(O)cc1)NC(=O)[C@H](CC(=O)O)NC(=O)[C@H](CO)NC(=O)[C@@H](NC(=O)[C@H](Cc1ccccc1)NC(=O)[C@@H](NC(=O)CNC(=O)[C@@H](N)CCC(=O)O)[C@@H](C)O)[C@@H](C)CC)C(=O)N[C@@H](C)C(=O)N[C@@H](CCSC)C(=O)N[C@@H](CC(=O)O)C(=O)N[C@@H](CCCCN)C(=O)N[C@H](C(=O)N[C@@H](CCCCNC(=O)CCCCCCCCCCCCCCC(=O)O)C(=O)N[C@@H](CCC(N)=O)C(=O)N[C@@H](CCC(N)=O)C(=O)N[C@@H](CC(=O)O)C(=O)N[C@@H](Cc1ccccc1)C(=O)N[C@H](C(=O)N[C@@H](CC(N)=O)C(=O)N[C@@H](Cc1c[nH]c2ccccc12)C(=O)N[C@@H](CC(C)C)C(=O)N[C@@H](CC(C)C)C(=O)N[C@@H](CCC(=O)O)C(=O)NCC(=O)NCC(=O)N1CCC[C@H]1C(=O)N[C@@H](CO)C(=O)N[C@@H](CO)C(=O)NCC(=O)N[C@@H](C)C(=O)N1CCC[C@H]1C(=O)N1CCC[C@H]1C(=O)N1CCC[C@H]1C(=O)N[C@@H](CO)C(=O)O)C(C)C)[C@@H](C)CC
B4: AT624 (peptide)
peptide: EGTFISDYSIAMDKIK(C16 diacid)QQDFVNWLEAQKPSSGAPPPS-OH
modifications: N-terminus assumed
SMILES: CC[C@H](C)[C@H](NC(=O)[C@H](CO)NC(=O)[C@H](Cc1ccc(O)cc1)NC(=O)[C@H](CC(=O)O)NC(=O)[C@H](CO)NC(=O)[C@@H](NC(=O)[C@H](Cc1ccccc1)NC(=O)[C@@H](NC(=O)CNC(=O)[C@@H](N)CCC(=O)O)[C@@H](C)O)[C@@H](C)CC)C(=O)N[C@@H](C)C(=O)N[C@@H](CCSC)C(=O)N[C@@H](CC(=O)O)C(=O)N[C@@H](CCCCN)C(=O)N[C@H](C(=O)N[C@@H](CCCCNC(=O)CCCCCCCCCCCCCCC(=O)O)C(=O)N[C@@H](CCC(N)=O)C(=O)N[C@@H](CCC(N)=O)C(=O)N[C@@H](CC(=O)O)C(=O)N[C@@H](Cc1ccccc1)C(=O)N[C@H](C(=O)N[C@@H](CC(N)=O)C(=O)N[C@@H](Cc1c[nH]c2ccccc12)C(=O)N[C@@H](CC(C)C)C(=O)N[C@@H](CCC(=O)O)C(=O)N[C@@H](C)C(=O)N[C@@H](CCC(N)=O)C(=O)N[C@@H](CCCCN)C(=O)N1CCC[C@H]1C(=O)N[C@@H](CO)C(=O)N[C@@H](CO)C(=O)NCC(=O)N[C@@H](C)C(=O)N1CCC[C@H]1C(=O)N1CCC[C@H]1C(=O)N1CCC[C@H]1C(=O)N[C@@H](CO)C(=O)O)C(C)C)[C@@H](C)CC
B5: AT625 (peptide)
peptide: EGTFISDYSIAMDKIK(C16 diacid)QQDFVNWLLEQKPSSGAPPPS-OH
modifications: N-terminus assumed
SMILES: CC[C@H](C)[C@H](NC(=O)[C@H](CO)NC(=O)[C@H](Cc1ccc(O)cc1)NC(=O)[C@H](CC(=O)O)NC(=O)[C@H](CO)NC(=O)[C@@H](NC(=O)[C@H](Cc1ccccc1)NC(=O)[C@@H](NC(=O)CNC(=O)[C@@H](N)CCC(=O)O)[C@@H](C)O)[C@@H](C)CC)C(=O)N[C@@H](C)C(=O)N[C@@H](CCSC)C(=O)N[C@@H](CC(=O)O)C(=O)N[C@@H](CCCCN)C(=O)N[C@H](C(=O)N[C@@H](CCCCNC(=O)CCCCCCCCCCCCCCC(=O)O)C(=O)N[C@@H](CCC(N)=O)C(=O)N[C@@H](CCC(N)=O)C(=O)N[C@@H](CC(=O)O)C(=O)N[C@@H](Cc1ccccc1)C(=O)N[C@H](C(=O)N[C@@H](CC(N)=O)C(=O)N[C@@H](Cc1c[nH]c2ccccc12)C(=O)N[C@@H](CC(C)C)C(=O)N[C@@H](CC(C)C)C(=O)N[C@@H](CCC(=O)O)C(=O)N[C@@H](CCC(N)=O)C(=O)N[C@@H](CCCCN)C(=O)N1CCC[C@H]1C(=O)N[C@@H](CO)C(=O)N[C@@H](CO)C(=O)NCC(=O)N[C@@H](C)C(=O)N1CCC[C@H]1C(=O)N1CCC[C@H]1C(=O)N1CCC[C@H]1C(=O)N[C@@H](CO)C(=O)O)C(C)C)[C@@H](C)CC
B6: AT627 (peptide)
peptide: EGTFISDYSIAMDKIK(C18 diacid)QQDFVNWLLAQKPSSGAPPPS-OH
modifications: N-terminus assumed
SMILES: CC[C@H](C)[C@H](NC(=O)[C@H](CO)NC(=O)[C@H](Cc1ccc(O)cc1)NC(=O)[C@H](CC(=O)O)NC(=O)[C@H](CO)NC(=O)[C@@H](NC(=O)[C@H](Cc1ccccc1)NC(=O)[C@@H](NC(=O)CNC(=O)[C@@H](N)CCC(=O)O)[C@@H](C)O)[C@@H](C)CC)C(=O)N[C@@H](C)C(=O)N[C@@H](CCSC)C(=O)N[C@@H](CC(=O)O)C(=O)N[C@@H](CCCCN)C(=O)N[C@H](C(=O)N[C@@H](CCCCNC(=O)CCCCCCCCCCCCCCCCC(=O)O)C(=O)N[C@@H](CCC(N)=O)C(=O)N[C@@H](CCC(N)=O)C(=O)N[C@@H](CC(=O)O)C(=O)N[C@@H](Cc1ccccc1)C(=O)N[C@H](C(=O)N[C@@H](CC(N)=O)C(=O)N[C@@H](Cc1c[nH]c2ccccc12)C(=O)N[C@@H](CC(C)C)C(=O)N[C@@H](CC(C)C)C(=O)N[C@@H](C)C(=O)N[C@@H](CCC(N)=O)C(=O)N[C@@H](CCCCN)C(=O)N1CCC[C@H]1C(=O)N[C@@H](CO)C(=O)N[C@@H](CO)C(=O)NCC(=O)N[C@@H](C)C(=O)N1CCC[C@H]1C(=O)N1CCC[C@H]1C(=O)N1CCC[C@H]1C(=O)N[C@@H](CO)C(=O)O)C(C)C)[C@@H](C)CC

Target: T1, human GIP receptor
Assay: cell-based or functional assay

Row | Binder | cAMP agonism % Emax [%] | cAMP antagonism [nM] | cAMP antagonism % inhib [%] | cAMP antagonism pIC50
1 | B1 | 0 | 17.1 | 93 | 7.8
2 | B2 | 0 | 11.2 | 85 | 8
3 | B3 | 0 | 4.47 | 100 | 8.4
4 | EGTFISDYSIAMDKIK(C18)QQDFVNWLLAQKPSSGAPPPS-OH [AT628] | 0 | 58.4 | 94 | 7.2
5 | B4 | 0 | 100 | ~90 | ~7
6 | B5 | 0 | 3.98 | 93 | 8.4
7 | B6 | 0 | 15.9 | 97 | 7.8
